In patent US7732133B2, “Screening methods for biologically active ligands” (Chugai Seiyaku Kabushiki Kaisha, priority 2000, dated 2010):
One block for each substance: values may come before it.

Tests used:
[1] = Titer of human EPO and G-CSF prepared from recombinant CHO cells
[2] = system: mixed culture of cell lines GFG, EPG, TPG and parental Ba/F3; experiment: Cytokine responses in mixed and individual cell cultures (Example 2); assay type: cell-based, mouse; conditions: mixed culture of four cell lines (each 4×10^3 cells/well), similar in individual cultures, 72 hours, WST-8; listed as hEPO
Procedure: Mixed culture of the cell lines GFG, EPG, and TPG, which express human G-CSF, EPO, and TPO chimeric receptors, respectively, and their parental cell line Ba/F3 was conducted and their response to various cytokines was examined.
The cells were washed twice with RPMI1640 media containing 2% fetal bovine serum, and then were suspended in RPMI1640 containing 10% fetal bovine serum. The four cell lines were mixed by adjusting each of the cell lines to 4×10^4 cells/mL (16×10^4 cells/mL in total) for the mixed culture, and, for individual cultures, cells were prepared at 4×10^4 cells/mL. 100 μL each of the cells were independently seeded on a 96-well microtiter plate (flat bottom, Falcon). After adding 100 μL/well each of appropriately diluted cytokines, the cultures were cultured for 72 hours in a CO2 incubator (5% CO2 concentration). After the culture, 10 μL/well WST-8 reagent (Cell Count Reagent SF; Nacalai Tesque) was added, and pre-reaction absorbance at a measurement wavelength of 450 nm and a control wavelength of 655 nm was measured using a microplate reader (Model 3550, Bio Rad). The plate was incubated for two hours in a CO2 incubator (CO2 concentration, 5%), and post-reaction absorbance was measured as above. Data were graphed out taking the cytokine concentrations on the horizontal axis and the amount of changes in absorbance after 2-hour incubation on the vertical axis (FIGS. 18, 19, and 20).

[3] = molecular target: T1, chimeric LIF receptor (human LIF receptor and human gp130 / mouse G-CSF receptor) in Ba/F3 cell line LIG (Homo sapiens, UniProt P40189+P42702); experiment: Growth response of chimeric LIF receptor-expressing Ba/F3 cell line LIG (WST-8); assay type: cell-based; conditions: 72 hours culture, WST-8 absorbance
T1 construct: from the 1st to the 833rd amino acid residues; expressed in transfected cells; host or cells: mouse Ba/F3 cells co-transfected with pCV-cLIFR and pCV-cgp130, clone LIG#47 = LIG
T1 sequence (P42702 45-833): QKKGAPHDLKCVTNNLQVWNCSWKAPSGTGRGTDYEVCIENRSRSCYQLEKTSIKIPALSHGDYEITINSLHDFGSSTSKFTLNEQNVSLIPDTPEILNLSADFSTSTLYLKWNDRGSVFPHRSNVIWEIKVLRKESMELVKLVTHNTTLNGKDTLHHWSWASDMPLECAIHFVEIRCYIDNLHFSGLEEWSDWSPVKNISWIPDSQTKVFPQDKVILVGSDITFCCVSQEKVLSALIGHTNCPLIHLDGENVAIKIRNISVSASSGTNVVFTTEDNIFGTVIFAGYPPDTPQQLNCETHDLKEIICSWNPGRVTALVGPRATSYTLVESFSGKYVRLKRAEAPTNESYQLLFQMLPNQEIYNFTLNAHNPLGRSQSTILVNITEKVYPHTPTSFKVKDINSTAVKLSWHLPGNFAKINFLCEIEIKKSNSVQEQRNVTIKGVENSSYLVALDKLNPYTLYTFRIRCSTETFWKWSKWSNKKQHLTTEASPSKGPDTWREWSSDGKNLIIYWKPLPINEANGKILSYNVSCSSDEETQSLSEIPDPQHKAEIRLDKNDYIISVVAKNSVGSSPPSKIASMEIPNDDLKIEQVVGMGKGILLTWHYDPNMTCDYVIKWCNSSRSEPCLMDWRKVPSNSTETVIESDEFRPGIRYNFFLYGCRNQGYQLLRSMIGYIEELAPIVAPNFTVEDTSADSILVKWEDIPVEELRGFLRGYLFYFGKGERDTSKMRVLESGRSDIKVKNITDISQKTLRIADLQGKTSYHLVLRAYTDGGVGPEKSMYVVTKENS
T1 sequence (P40189 23-619): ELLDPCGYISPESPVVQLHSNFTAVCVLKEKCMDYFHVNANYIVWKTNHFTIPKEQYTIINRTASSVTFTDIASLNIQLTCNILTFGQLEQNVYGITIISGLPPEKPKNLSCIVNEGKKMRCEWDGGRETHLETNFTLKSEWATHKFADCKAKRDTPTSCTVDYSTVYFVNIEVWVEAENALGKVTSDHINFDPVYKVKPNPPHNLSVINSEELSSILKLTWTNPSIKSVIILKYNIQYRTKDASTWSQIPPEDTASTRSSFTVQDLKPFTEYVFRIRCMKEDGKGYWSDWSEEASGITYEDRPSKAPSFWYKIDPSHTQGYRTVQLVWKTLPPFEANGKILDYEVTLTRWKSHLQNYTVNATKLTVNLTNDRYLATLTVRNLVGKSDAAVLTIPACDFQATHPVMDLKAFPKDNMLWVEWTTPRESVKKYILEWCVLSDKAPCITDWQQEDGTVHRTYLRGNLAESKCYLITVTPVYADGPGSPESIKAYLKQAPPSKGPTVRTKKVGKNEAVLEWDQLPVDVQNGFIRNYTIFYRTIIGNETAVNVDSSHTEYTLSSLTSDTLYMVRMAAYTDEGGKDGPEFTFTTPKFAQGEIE
T1 sequence (P40223 627-837 partner limits assumed): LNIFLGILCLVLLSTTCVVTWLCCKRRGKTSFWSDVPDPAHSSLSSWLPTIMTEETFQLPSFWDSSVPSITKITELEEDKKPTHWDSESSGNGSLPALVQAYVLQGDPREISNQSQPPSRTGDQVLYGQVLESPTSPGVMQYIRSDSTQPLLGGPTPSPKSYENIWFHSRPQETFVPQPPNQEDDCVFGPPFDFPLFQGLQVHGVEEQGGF
Description: Chimeric receptor DNAs were constructed by linking cDNA fragments encoding human LIF receptor (from the 1st to the 833rd amino acid residues; Gearing, D P. et al. […] EMBO J., 10, 2839-2848) and human gp130 (from the 1st to the 619th amino acid residues; Hibi, M. et al. (1990) Cell, 63, 1149-1157) with the transmembrane and intracellular domains (from the 602nd to the 813th amino acid residues; Fukunaga, R. et al. (1990) Cell 61, 341-350) of mouse G-CSF receptor, respectively. These constructs were inserted downstream of the HEF1α promoter of the mammalian expression vector pCV to construct chimeric receptors expression vectors, pCV-cLIFR and pCV-cgp130, respectively. pCV-cLIFR and pCV-cgp130 were linearized with Pvu I (Takara Shuzo), respectively, extracted with phenol and chloroform, and purified by ethanol precipitation. […]
(§1) The cells were washed twice with Media A, and were suspended in Media A to give a cell density of 5×10^4 cells/mL. […] After the culture, 10 μL/well WST-8 reagent (Cell Count Reagent SF; Nacalai Tesque) was added, and pre-reaction absorbance at a measurement wavelength of 450 nm and a control wavelength of 655 nm was measured using microplate reader (Model 3550, Bio Rad). The plate was incubated for two hours in a CO2 incubator (CO2 concentration, 5%), and post-reaction absorbance was measured as above. […]

[4] = molecular target: T2, chimeric leptin receptor (human leptin receptor extracellular domain / mouse G-CSF receptor) in Ba/F3 cell line LPG (Homo sapiens, UniProt P48357); experiment: Growth response of chimeric leptin receptor-expressing Ba/F3 cell line LPG (WST-8); assay type: cell-based; conditions: 72 hours culture, WST-8 absorbance
T2 construct: from the 1st to the 839th amino acid residues; expressed in transfected cells; host or cells: mouse Ba/F3 cells, clone LPG#51 = LPG
T2 sequence (P48357 22-839): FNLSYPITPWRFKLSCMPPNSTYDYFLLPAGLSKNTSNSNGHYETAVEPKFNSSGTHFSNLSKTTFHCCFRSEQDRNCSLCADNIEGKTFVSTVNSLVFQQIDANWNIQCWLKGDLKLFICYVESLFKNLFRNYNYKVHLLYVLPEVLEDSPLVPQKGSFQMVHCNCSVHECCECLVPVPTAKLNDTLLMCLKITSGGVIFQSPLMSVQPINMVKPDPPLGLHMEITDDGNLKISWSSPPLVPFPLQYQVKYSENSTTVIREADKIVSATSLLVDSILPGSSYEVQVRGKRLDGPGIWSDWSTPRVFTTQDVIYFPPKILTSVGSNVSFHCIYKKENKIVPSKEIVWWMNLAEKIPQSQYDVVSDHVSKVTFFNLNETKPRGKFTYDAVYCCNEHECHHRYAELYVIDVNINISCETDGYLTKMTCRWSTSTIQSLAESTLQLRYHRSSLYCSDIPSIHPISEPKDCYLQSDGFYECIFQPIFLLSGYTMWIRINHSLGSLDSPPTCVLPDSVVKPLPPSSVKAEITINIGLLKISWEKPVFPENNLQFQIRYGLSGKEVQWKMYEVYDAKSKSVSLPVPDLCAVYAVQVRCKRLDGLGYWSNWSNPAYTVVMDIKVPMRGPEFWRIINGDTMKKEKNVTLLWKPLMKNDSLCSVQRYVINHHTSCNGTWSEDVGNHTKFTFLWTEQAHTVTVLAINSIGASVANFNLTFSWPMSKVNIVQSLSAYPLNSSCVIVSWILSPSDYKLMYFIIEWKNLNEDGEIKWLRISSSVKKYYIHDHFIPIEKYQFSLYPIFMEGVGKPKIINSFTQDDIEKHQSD
Description: A chimeric receptor cDNA was constructed by linking cDNA fragments encoding the extracellular domain (from the 1st to the 839th amino acid residues; Tartaglia, L A. et al. (1995) Cell, 83, 1263-1271) of human leptin receptor, and the transmembrane and intracellular domains (from the 602nd to the 813th amino acid residues; Fukunaga, R. et al. (1990) Cell 61, 341-350) of mouse G-CSF receptor. This cDNA was inserted downstream of the HEF1α promoter of the mammalian expression vector pCV to construct chimeric receptor expression vector pCV-cLepR. pCV-cLepR was linearized with Pvu I (Takara Shuzo), extracted with phenol and chloroform, and purified by ethanol precipitation. […]
as §1

Substance: erythropoietin [human EPO]
titer [1]: 270,000 IU/mg
concentration where the response was observed to start [2]: 2 pg/mL

concentration at which an evident growth reaction was observed [3]: ≥ 0.4 ng/mL
Substance: human LIF: human leukemia inhibitory factor (Genzyme)

concentration at which an evident growth reaction was observed [4]: ≥ 0.2 ng/mL
Substance: human leptin: human leptin (Genzyme)
